From article PMC9697525, “A High-Quality CdSe/CdS/ZnS Quantum-Dot-Based FRET Aptasensor for the Simultaneous Detection of Two Different Alzheimer’s Disease Core Biomarkers” come the findings set out here.

Data set [1] addresses amyloid-beta monomer (AbM) (UniProt P05067 672-711). In words: FRET fluorescence recovery (displacement from Au NRs@PDA); 20 nM AbM; no obvious recovery; QD-aptamer conjugates (in deionized water) with 0.5 mg/mL Au NRs@PDA stock (55 uL to 20 uL), 30 min quench, then 120 min with protein at room temperature; excitation 405 nm; buffer, salt and pH not stated. The conditions noted are these: protein: commercial; label: QDs665 (CdSe/CdS/ZnS) via 5' thiol.

The target of data set [2] is amyloid-beta oligomer (AbO), from Abeta(1-40) peptide (UniProt P05067 672-711). The experiment in a line: FRET fluorescence recovery (displacement from Au NRs@PDA); Au NRs@PDA quencher; LOD 50 pM (not a Kd); QD-aptamer conjugates (in deionized water) with 0.5 mg/mL Au NRs@PDA stock (55 uL to 20 uL), 30 min quench, then 120 min with protein at room temperature; excitation 405 nm; buffer, salt and pH not stated. The conditions noted are these: protein: commercial; label: QDs625 (CdSe/CdS/ZnS) via 5' thiol.
Sequence of amyloid-beta oligomer (AbO), from Abeta(1-40) peptide (P05067 672-711): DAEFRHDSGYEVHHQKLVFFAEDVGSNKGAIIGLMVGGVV

Sequence of amyloid-beta monomer (AbM) (P05067 672-711): as above

For GCGGAGCGTGGCAGG (ssDNA, 5'-HS-(CH2)6) [tau aptamer], the binding result in data set [1] was “no binding”.

As for GCCTGTGTTGGGGCGGGTGCG (ssDNA, 5'-HS-(CH2)6) [AbO aptamer], the binding result in data set [2] is “binds”.
